From article PMC4915627, “Staphylococcal Bap Proteins Build Amyloid Scaffold Biofilm Matrices in Response to Environmental Signals” (PLoS Pathogens, 2016) come the findings set out here.

Data set [1] deals with the molecule itself. Briefly: thioflavin-T fluorescence; fresh rBap_B at 0.01-0.036 mg/ml, 25 μM ThT, 25°C, pH 4.5, 5 min.
Data set [2] concerns the molecule itself. In words: gel formation + electron microscopy + thioflavin-T fluorescence; synthetic peptide at 10 μM, pH 4.5, citrate buffer, room temperature (25°C), four weeks.

B1: purified recombinant Bap_B protein (region B of Bap of S. aureus V329, amino acids 361-819, N-terminal hexahistidine tag) (domain or fragment)
chain: QKSLGYTDNYTFASMLFDPGKLDSDDALNSNIIPFDLHSYMSGANSGNRYKIDLKLDPIIAEHVTKISANPSGSNKPVEFVRNKDENGNLTDTWEVNFIRANDGLFGGAEILSQYTAKNGKIELDDTVGNIISNAGNLSNNKLNHQVFVRDSRENKIVRTSESSGYFLTKADDDLVNLENNVSTENNNAFKASSGSATYNENVGEFGGILIDQQIMKNGIFSYSKTKANQWAYNYQIDKDLLPYIEGVELHQYDYKGLNGFDKNYDAKNKVADLTIDEVGNGTITSDNLNKLIEFNNALPETVGVRVVLKLNKSVNNILTKDAKYDSEGNLIRETTKQKEDFTFAGYLTDSKGALINNTLGTSTLALQDYDKDGLLDRYERQLSLSDAENEDTDGDGKNDGDEVVNYKTSPLVGKPQAADITTEDTVVSGSVPLKEGAATQTAKVINAEGTTVGTATVN
notes: Biofilm associated protein Bap of Staphylococcus aureus V329, region B, amino acids 361-819 (1377 bp fragment cloned in pET46-Ek/LIC); The results give domain B as residues 362-819 (chimeras); the methods give 361-819 for the recombinant protein; also called B domain of Bap
With B1, the binding result in data set [1] is “binds”.

B2: Bap_B amyloid peptide I (aa 487 to 496) (peptide)
peptide: TVGNIISNAG
notes: Bap of Staphylococcus aureus, stretch of region B, aa 487 to 496; source: synthetic peptide, bought: CASLO ApS
In the case of B2, in data set [2], the binding result is recorded as “binds”.

B3: Bap_B amyloid peptide II (aa 579 to 584) (peptide)
peptide: GIFSYS
notes: Bap of Staphylococcus aureus, stretch of region B, aa 579 to 584; also called GIFSYS; source: synthetic peptide, bought: CASLO ApS
In the case of B3, the binding result in data set [2] is “binds”.
